Source: US10487116B2, “Immunotherapy against several tumors, such as lung cancer, including NSCLC” (IMMATICS BIOTECHNOLOGIES GMBH, priority 2013, dated 2019)

How the values were obtained:
prostate cancer cells = conditions: Beckers et al., 2007; cited from earlier work
HLA-DR2 = target: T1, HLA-DR2 (Homo sapiens, UniProt P01903+P01911); assay: ProImmune REVEAL MHC-peptide binding assay; conditions: compared to the positive control peptide, time 0
T1 construct: purchased ProImmune
Procedure: (§1) The ProImmune REVEAL® MHC-peptide binding assay determines the ability of each candidate peptide to bind to the selected HLA class II haplotype and stabilize the HLA-peptide complex. Thereby the candidate peptides are assembled in vitro with a particular HLA class II protein. The level of peptide incorporation into HLA molecules is measured by presence or absence of the native conformation of the assembled HLA-peptide complex at time 0 after completed refolding procedure (so called on-rate).
(§2) The binding capacity of candidate peptide to a particular HLA molecule is compared to the one with known very strong binding properties (positive control) resulting in the corresponding REVEAL® […] binding score. The positive control peptide is selected and provided by ProImmune based on their experience individually for each HLA haplotype.

HLA-DR haplotypes [1] = assay: ProImmune REVEAL MHC-peptide binding assay, all investigated haplotypes; parameters: species or system human; conditions: of 7 investigated HLA haplotypes
Source text: The 7 investigated HLA-DR haplotypes are selected according to their frequencies in HLA-A*02 and HLA-A*24 positive North Americans population (Table 7.1 and 7.2)
as §1, §2

HLA-DR haplotypes [2] = assay: Stability of the formed HLA-peptide complexes (REVEAL assay, 24 h at 37° C.); assay type: binding, human; conditions: after 24 h at 37° C.; of 6 investigated HLA-peptide complexes
Procedure: Besides the affinity of a peptide to a particular HLA molecule, the enduring stability of the formed HLA-peptide complex is crucial for the occurrence of an immune response. Accordingly presence of the formed HLA-peptide complex is measured after its incubation for 24 h at 37° C. Consequently the stability of the formed MHC-peptide complex is calculated as a ration of the binding scores at 24 h and the binding scores which are received right after the refolding (accordingly at time 0) in percent.

HLA-DR4 = assay: ProImmune REVEAL MHC-peptide binding assay; parameters: species or system human; conditions: compared to the positive control peptide, time 0
Procedure: as §1, §2

HLA-DR7 = assay: ProImmune REVEAL MHC-peptide binding assay; parameters: species or system human; conditions: compared to the positive control peptide, time 0
Procedure: as §1, §2

HLA-DR3 = assay: ProImmune REVEAL MHC-peptide binding assay; parameters: species or system human
Procedure: as §1, §2

HLA-DR5 = assay: ProImmune REVEAL MHC-peptide binding assay; parameters: species or system human; conditions: compared to the positive control peptide, time 0
Procedure: as §1, §2

HLA-DR6 = assay: ProImmune REVEAL MHC-peptide binding assay; parameters: species or system human
Procedure: as §1, §2

HLA-DR1 = assay: ProImmune REVEAL MHC-peptide binding assay; parameters: species or system human; conditions: compared to the positive control peptide, time 0
Procedure: as §1, §2

HLA-A*0201 = HLA-A*0201 (Homo sapiens, UniProt P04439, D140Y/D185E/D98H/E176V/E277Q/G131W/G231S/I119V/I121R/I166T/I218V/L300P/L318F/N151K/N90K/P208A/P217A/Q86G/Q94H/R138H/R169H/T345S); assay: UV-ligand exchange with ELISA of stabilized MHC complexes; assay type: binding; conditions: for Exchange yield: class symbol
Source text: Candidate peptides for the vaccines according to the present invention were further tested for immunogenicity by in vitro priming assays. The individual peptide-MHC complexes required for these assays were produced by UV-ligand exchange, where a UV-sensitive peptide is cleaved upon UV-irradiation, and exchanged with the peptide of interest as analyzed. Only peptide candidates that can effectively bind and stabilize the peptide-receptive MHC molecules prevent dissociation of the MHC complexes. To determine the yield of the exchange reaction, an ELISA was performed based on the detection of the light chain (β2m) of stabilized MHC complexes. The assay was performed as generally described in Rodenko et al. (Rodenko B, Toebes M, Hadrup S R, van Esch W J, Molenaar A M, Schumacher T N, Ovaa H. Generation of peptide-MHC class I complexes through UV-mediated ligand exchange. Nat Protoc. 2006; 1(3):1120-32.).
96 well MAXISorp plates (NUNC) were coated over night with 2 ug/ml streptavidin in PBS at room temperature, washed 4× and blocked for 30 min at 37° C. in 2% BSA containing blocking buffer. Refolded HLA-A*0201/MLA-001 monomers served as standards, covering the range of 8-500 ng/ml. Peptide-MHC monomers of the UV-exchange reaction were diluted 100 fold in blocking buffer. Samples were incubated for 1 h at 37° C., washed four times, incubated with 2 ug/ml HRP conjugated anti-β2m for 1 h at 37° C., washed again and detected with TMB solution that is stopped with […]. Absorption was measured at 450 nm.

T1 sequence (P01903 26-254): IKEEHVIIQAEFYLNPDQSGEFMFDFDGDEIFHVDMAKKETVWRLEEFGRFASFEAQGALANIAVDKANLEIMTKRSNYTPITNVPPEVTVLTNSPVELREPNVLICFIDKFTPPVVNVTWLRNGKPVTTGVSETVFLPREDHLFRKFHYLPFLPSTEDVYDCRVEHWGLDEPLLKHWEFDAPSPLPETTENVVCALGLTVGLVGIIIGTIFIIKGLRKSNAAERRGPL
T1 sequence (P01911 30-227 limits assumed): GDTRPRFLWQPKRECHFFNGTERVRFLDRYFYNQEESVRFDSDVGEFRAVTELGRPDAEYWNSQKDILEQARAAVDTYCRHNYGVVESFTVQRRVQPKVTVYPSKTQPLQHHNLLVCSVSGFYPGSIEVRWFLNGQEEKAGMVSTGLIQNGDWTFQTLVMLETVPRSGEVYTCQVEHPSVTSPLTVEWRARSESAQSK

Molecule | Exchange yield (HLA-A*0201) | also measured
CO[C@H]1CCCC[C@@H](c2ccccc2)OC(=O)[C@@H](C)[C@@]2(O)O[C@H]([C@@H](C)[C@H](O)[C@H]2OC)[C@@H](C)/C=C/[C@H]1OC [soraphen A] | – | fatty acid oxidation (prostate cancer cells): enhances fatty acid oxidation; lipogenesis (prostate cancer cells): blocks lipogenesis
INNYTPDMNREDVDYAIR (listed as Homo sapiens) [SEQ ID NO 76] | – | Relative Binding Score HLA-DR2 (HLA-DR2): 2.43; HLA haplotypes with which a complex is formed (HLA-DR haplotypes [1]): 4; HLA-peptide complexes stable (HLA-DR haplotypes [2]): 2; Relative Binding Score HLA-DR4 (HLA-DR4): 0.74; Relative Binding Score HLA-DR7 (HLA-DR7): 0; binding to HLA-DR3 (HLA-DR3): did not bind; Relative Binding Score HLA-DR5 (HLA-DR5): 0.04; binding to HLA-DR6 (HLA-DR6): did not bind; Relative Binding Score HLA-DR1 (HLA-DR1): 0.04
KIQEILTQV (listed as Homo sapiens) [SEQ ID NO 66] | ++ (20%-49% = ++) | –
KIQEMQHFL (listed as Homo sapiens) [SEQ ID NO 2] | +++ (50%-70%, +++) | –
KIVDFSYSV (listed as Homo sapiens) [SEQ ID NO 85] | +++ (50%-70%, +++) | –
KIYNEFISV (listed as Homo sapiens) [SEQ ID NO 30] | ++ (20%-49% = ++) | –
KLAVALLAA (listed as Homo sapiens) [SEQ ID NO 15] | ++ (20%-49% = ++) | –
KLDETNNTL (listed as Homo sapiens) [SEQ ID NO 6] | +++ (50%-70%, +++) | –
KLFGEKTYL (listed as Homo sapiens) [SEQ ID NO 26] | ++ (20%-49% = ++) | –
KLLEYIEEI (listed as Homo sapiens) [SEQ ID NO 71] | ++ (20%-49% = ++) | –
KLLTEVHAA (listed as Homo sapiens) [SEQ ID NO 72] | +++ (50%-70%, +++) | –
KLSWDLIYL (listed as Homo sapiens) [SEQ ID NO 32] | +++ (50%-70%, +++) | –
KLVEFDFLGA (listed as Homo sapiens) [SEQ ID NO 54] | +++ (50%-70%, +++) | –
KVLEILHRV (listed as Homo sapiens) [SEQ ID NO 65] | +++ (50%-70%, +++) | –
NLIEKSIYL (listed as Homo sapiens) [SEQ ID NO 4] | ++ (20%-49% = ++) | –
NLLAEIHGV (listed as Homo sapiens) [SEQ ID NO 44] | ++++ (>70 = ++++) | –
RLLDSVSRL (listed as Homo sapiens) [SEQ ID NO 39] | +++ (50%-70%, +++) | –
RLLGPSAAADILQL (listed as Homo sapiens) [SEQ ID NO 17] | ++ (20%-49% = ++) | –
RLLJAAENFL (RLLAAENFL; listed as Homo sapiens) [SEQ ID NO 49] | ++ (20%-49% = ++) | Average exchange yield in % (HLA-A*0201; ELISA detecting β2m of stabilized MHC complexes): 47%
RVLPPSALQSV (listed as Homo sapiens) [SEQ ID NO 87] | +++ (50%-70%, +++) | –
SILTIEDGIFEV (listed as Homo sapiens) [SEQ ID NO 41] | ++ (20%-49% = ++) | –
SISDVIAQV (listed as Homo sapiens) [SEQ ID NO 28] | +++ (50%-70%, +++) | –
SLAGDVALQQL (listed as Homo sapiens) [SEQ ID NO 63] | ++++ (>70 = ++++) | –
SLAPAGVIRV (listed as Homo sapiens) [SEQ ID NO 79] | +++ (50%-70%, +++) | –
SLFGNSGILENV (listed as Homo sapiens) [SEQ ID NO 80] | +++ (50%-70%, +++) | –
SLHFLILYV (listed as Homo sapiens) [SEQ ID NO 38] | + (<20% = +) | –
SLIDADPYL (listed as Homo sapiens) [SEQ ID NO 58] | +++ (50%-70%, +++) | –

Molecule | Exchange yield (HLA-A*0201) | also measured
SLIEDLILL (listed as Homo sapiens) [SEQ ID NO 12] | ++ (20%-49% = ++) | –
SLLAQNTSWLL (listed as Homo sapiens) [SEQ ID NO 74] | +++ (50%-70%, +++) | –
SLLESNKDLLL (listed as Homo sapiens) [SEQ ID NO 88] | +++ (50%-70%, +++) | –
SLLPVDIRQYL (listed as Homo sapiens) [SEQ ID NO 50] | +++ (50%-70%, +++) | –
SLVAVELEKV (listed as Homo sapiens) [SEQ ID NO 90] | +++ (50%-70%, +++) | –
SLWGGDVVL (listed as Homo sapiens) [SEQ ID NO 42] | +++ (50%-70%, +++) | –
SLYDNQITTV (listed as Homo sapiens) [SEQ ID NO 78] | ++ (20%-49% = ++) | –
SLYKGLLSV (listed as Homo sapiens) [SEQ ID NO 56] | ++ (20%-49% = ++) | –
SMSGYDQVL (listed as Homo sapiens) [SEQ ID NO 8] | ++ (20%-49% = ++) | –
TLISRLPAV (listed as Homo sapiens) [SEQ ID NO 61] | ++++ (>70 = ++++) | –
TLSSIKVEV (listed as Homo sapiens) [SEQ ID NO 5] | +++ (50%-70%, +++) | –
TLTNIIHNL (listed as Homo sapiens) [SEQ ID NO 46] | +++ (50%-70%, +++) | –
TLWYRAPEV (listed as Homo sapiens) [SEQ ID NO 7] | ++ (20%-49% = ++) | –
TLYPHTS (TLYPHTSQV; listed as Homo sapiens) [SEQ ID NO 18] | ++ (20%-49% = ++) | –
TNGVIHVVDKLLYPADT (listed as Homo sapiens) [SEQ ID NO 77] | – | Relative Binding Score HLA-DR2 (HLA-DR2): 0.68; HLA haplotypes with which a complex is formed (HLA-DR haplotypes [1]): 5; HLA-peptide complexes stable (HLA-DR haplotypes [2]): 3; Relative Binding Score HLA-DR4 (HLA-DR4): 0.02; Relative Binding Score HLA-DR7 (HLA-DR7): 0.47; binding to HLA-DR3 (HLA-DR3): did not bind; Relative Binding Score HLA-DR5 (HLA-DR5): 0.08; binding to HLA-DR6 (HLA-DR6): did not bind; Relative Binding Score HLA-DR1 (HLA-DR1): 0.24
TVAEVIQS V (TVAEVIQSV; listed as Homo sapiens) [SEQ ID NO 27] | +++ (50%-70%, +++) | –
TVIGFLLPFA (listed as Homo sapiens) [SEQ ID NO 16] | ++++ (>70 = ++++) | –
VLAPLFVYL (listed as Homo sapiens) [SEQ ID NO 37] | +++ (50%-70%, +++) | –
VLFPNLKTV (listed as Homo sapiens) [SEQ ID NO 35] | ++ (20%-49% = ++) | –
VLLPVEVATHYL (listed as Homo sapiens) [SEQ ID NO 11] | +++ (50%-70%, +++) | –
VLSVVEVTL (listed as Homo sapiens) [SEQ ID NO 10] | ++++ (>70 = ++++) | –
VVDKTLLLV (listed as Homo sapiens) [SEQ ID NO 60] | ++ (20%-49% = ++) | –
YLAPFLRNV (listed as Homo sapiens) [SEQ ID NO 51] | +++ (50%-70%, +++) | –
YLIHFPVSV (listed as Homo sapiens) [SEQ ID NO 13] | + (<20% = +) | –
YLPHAPPFA (listed as Homo sapiens) [SEQ ID NO 53] | +++ (50%-70%, +++) | –
YVYQNNIYL (listed as Homo sapiens) [SEQ ID NO 68] | ++ (20%-49% = ++) | –
